Laboratory results as given in publication PMC4357707 (Nucleic Acids Research, 2015).
Like-named read-outs stand apart in the source and are kept apart here.

Key:
Experiment in all cases: EMSA
HEN1 Δ38-45 [1] = target: T1, HEN1 Δ38-45 (Arabidopsis thaliana, UniProt Q9C5Q8 1-37+=G+46-942, internal_change)
T1 sequence: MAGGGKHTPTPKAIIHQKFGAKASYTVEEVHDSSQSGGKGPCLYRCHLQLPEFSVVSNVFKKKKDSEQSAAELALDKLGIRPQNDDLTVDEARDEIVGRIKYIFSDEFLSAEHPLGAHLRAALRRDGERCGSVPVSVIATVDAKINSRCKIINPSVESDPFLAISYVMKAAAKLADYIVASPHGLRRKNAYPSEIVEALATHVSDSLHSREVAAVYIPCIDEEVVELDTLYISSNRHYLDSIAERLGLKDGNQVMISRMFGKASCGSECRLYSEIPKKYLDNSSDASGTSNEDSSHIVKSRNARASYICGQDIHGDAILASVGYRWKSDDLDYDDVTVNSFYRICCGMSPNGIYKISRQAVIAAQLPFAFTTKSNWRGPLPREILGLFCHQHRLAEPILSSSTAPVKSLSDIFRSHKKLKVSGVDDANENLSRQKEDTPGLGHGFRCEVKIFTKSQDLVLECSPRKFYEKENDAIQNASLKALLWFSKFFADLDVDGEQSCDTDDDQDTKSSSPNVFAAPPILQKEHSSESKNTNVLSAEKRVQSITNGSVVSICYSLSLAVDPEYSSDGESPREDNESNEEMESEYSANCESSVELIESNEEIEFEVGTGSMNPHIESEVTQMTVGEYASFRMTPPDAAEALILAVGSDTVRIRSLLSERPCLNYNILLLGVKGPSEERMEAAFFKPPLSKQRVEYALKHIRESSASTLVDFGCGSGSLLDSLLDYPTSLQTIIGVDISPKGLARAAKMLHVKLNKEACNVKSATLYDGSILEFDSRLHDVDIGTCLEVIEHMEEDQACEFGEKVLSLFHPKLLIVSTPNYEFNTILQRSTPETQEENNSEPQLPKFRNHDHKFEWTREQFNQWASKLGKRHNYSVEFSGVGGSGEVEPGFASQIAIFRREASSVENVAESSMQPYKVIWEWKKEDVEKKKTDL

HEN1 Δ38-45 [2] = target: T1, HEN1 Δ38-45; remark: listed apart in the source
HYL1 = target: T2, HYL1 (Arabidopsis thaliana, UniProt O04492 1-419)
T2 sequence: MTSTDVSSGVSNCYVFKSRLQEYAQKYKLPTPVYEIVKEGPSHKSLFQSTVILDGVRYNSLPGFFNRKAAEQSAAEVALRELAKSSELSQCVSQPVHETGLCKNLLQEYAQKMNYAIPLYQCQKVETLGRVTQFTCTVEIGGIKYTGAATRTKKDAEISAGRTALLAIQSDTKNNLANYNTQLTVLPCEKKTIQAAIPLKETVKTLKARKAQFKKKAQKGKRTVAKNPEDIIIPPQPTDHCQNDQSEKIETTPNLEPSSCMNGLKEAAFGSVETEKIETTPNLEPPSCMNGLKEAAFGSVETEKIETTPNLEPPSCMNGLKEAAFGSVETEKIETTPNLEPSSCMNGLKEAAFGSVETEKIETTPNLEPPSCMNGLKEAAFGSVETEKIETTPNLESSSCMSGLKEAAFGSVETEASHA

HEN1-KK69-70AA = target: T3, HEN1-KK69-70AA (Arabidopsis thaliana, UniProt Q9C5Q8 1-942, K69A;K70A)
T3 sequence: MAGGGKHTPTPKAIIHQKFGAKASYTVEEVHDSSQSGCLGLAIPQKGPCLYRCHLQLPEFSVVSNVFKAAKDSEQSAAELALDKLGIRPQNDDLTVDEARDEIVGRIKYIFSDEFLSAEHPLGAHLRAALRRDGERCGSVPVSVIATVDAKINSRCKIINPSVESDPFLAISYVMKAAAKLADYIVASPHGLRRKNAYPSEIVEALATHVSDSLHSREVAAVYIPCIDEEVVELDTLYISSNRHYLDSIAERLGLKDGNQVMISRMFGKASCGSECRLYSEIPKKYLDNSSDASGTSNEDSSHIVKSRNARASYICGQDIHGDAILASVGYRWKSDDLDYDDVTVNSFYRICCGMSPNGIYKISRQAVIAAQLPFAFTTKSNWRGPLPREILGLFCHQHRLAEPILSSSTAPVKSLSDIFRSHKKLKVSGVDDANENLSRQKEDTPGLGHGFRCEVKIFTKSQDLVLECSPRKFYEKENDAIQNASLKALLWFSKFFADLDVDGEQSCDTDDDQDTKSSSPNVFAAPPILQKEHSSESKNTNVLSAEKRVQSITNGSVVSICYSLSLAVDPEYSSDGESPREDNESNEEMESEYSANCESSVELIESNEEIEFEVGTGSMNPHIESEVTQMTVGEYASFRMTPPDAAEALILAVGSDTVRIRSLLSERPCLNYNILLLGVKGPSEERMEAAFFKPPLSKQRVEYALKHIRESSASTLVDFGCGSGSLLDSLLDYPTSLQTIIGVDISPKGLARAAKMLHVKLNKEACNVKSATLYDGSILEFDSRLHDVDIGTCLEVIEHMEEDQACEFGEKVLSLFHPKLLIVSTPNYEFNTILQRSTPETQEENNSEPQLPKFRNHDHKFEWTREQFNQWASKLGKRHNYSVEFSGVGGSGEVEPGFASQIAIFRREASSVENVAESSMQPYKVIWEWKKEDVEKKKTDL

B1: miR173/miR173* (dsRNA)
RNA 1: UUCGCUUGCAGAGAGAAAUCAC
RNA 2: GAUUCUCUGUGUAAGCGAAAG
HEN1 Δ38-45 [1]
  Kd: 0.79 ± 0.05 nM
HEN1 Δ38-45 [2]
  Kd: 0.32 ± 0.04 nM
HYL1
  binding result: binds
HEN1-KK69-70AA
  binding result: no binding
